Consider ten molecules from patent US20200317768A1 (published 2020).

One may read the Kd as the free concentration of one partner at which half of the binding sites on the other are occupied at equilibrium, for simple one-to-one binding.

Holding throughout (assay): SPR (BIACORE), captured antibody, FcgR as analyte
In general terms: Surface plasmon resonance follows binding to a sensor surface in real time, without labels.

Assay [1] has as its target T1, cynomolgus monkey FcγRIIb extracellular domain, His-tagged (cynomolgus monkey).
T1 construct: also called cyno FcγRIIb; cynoFcγRIIb; not shown: C-terminal His-tag
T1 chain: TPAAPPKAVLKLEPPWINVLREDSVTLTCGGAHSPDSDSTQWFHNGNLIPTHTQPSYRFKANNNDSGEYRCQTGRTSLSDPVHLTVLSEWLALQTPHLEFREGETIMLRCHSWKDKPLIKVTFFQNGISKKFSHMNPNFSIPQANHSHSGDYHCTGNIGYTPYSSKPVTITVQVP

Assay [2] addresses T2, cynomolgus monkey FcγRIIIaS extracellular domain, His-tagged (cynomolgus monkey, UniProt Q8SPW2 21-206 at identity 1.00)).
T2 construct: also called cyno FcγRIIIaS; cynoFcγRIIIaS; not shown: C-terminal His-tag
T2 chain: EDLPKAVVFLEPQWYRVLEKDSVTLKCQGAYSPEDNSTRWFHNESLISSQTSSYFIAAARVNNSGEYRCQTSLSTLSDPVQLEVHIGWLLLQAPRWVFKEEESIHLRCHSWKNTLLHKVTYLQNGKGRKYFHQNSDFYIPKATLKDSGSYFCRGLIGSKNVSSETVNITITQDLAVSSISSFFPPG

The target in assay [3] is T3, cynomolgus monkey FcγRIIa2 extracellular domain, His-tagged (cynomolgus monkey).
T3 construct: also called cyno FcγRIIa2; cynoFcgRIIa2; not shown: C-terminal His-tag
T3 chain: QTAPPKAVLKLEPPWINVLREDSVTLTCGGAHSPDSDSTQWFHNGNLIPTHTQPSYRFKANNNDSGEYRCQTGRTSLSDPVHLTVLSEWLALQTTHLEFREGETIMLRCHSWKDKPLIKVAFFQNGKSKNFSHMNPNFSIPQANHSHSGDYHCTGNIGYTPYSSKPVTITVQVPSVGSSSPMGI

Assay [4] has as its target T4, cynomolgus monkey FcγRIIa3 extracellular domain, His-tagged (cynomolgus monkey).
T4 construct: also called cyno FcγRIIa3; cynoFcgRIIa3; not shown: C-terminal His-tag
T4 chain: T3 chain with K127I, N130K, H133P, Q142R

Assay [5] has as its target T5, human FcγRIIIaV extracellular domain, His-tagged (human, UniProt P08637 17-208).
T5 construct: also called FcgRIIIaV; not shown: C-terminal His-tag

The target of assay [6] is T6, human FcγRIIaH extracellular domain, His-tagged (human, UniProt P12318 34-217).
T6 construct: also called human FcγRIIa (type H); FcgRIIaH; not shown: C-terminal His-tag
T6 sequence: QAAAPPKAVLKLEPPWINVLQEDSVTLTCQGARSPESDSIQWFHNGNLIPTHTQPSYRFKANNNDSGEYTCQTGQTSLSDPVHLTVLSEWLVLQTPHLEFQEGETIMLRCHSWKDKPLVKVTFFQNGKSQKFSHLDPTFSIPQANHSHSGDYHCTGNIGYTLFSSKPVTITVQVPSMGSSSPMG

Assay [7] has as its target T7, human FcγRIIb extracellular domain, His-tagged (human, UniProt P31994 43-217).
T7 construct: also called FcgRIIb (human); not shown: C-terminal His-tag
T7 sequence: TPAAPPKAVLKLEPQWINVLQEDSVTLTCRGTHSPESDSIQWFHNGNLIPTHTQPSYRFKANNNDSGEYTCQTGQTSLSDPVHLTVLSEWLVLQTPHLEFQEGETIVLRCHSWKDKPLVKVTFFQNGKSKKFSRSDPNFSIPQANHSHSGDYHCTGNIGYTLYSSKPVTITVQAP

The target of assay [8] is T8, human FcγRIIaR extracellular domain, His-tagged (human, UniProt P12318 34-217).
T8 construct: also called human FcγRIIa (type R); FcgRIIaR; not shown: C-terminal His-tag
T8 chain: T6 sequence with H134R

For assay [9], the target named is T9, cynomolgus monkey FcγRIIa1 extracellular domain, His-tagged (cynomolgus monkey).
T9 construct: also called cyno FcγRIIa1; cynoFcgRIIa1; not shown: C-terminal His-tag
T9 chain: T3 chain with T95P, A121T, K127I, S128A, N130K, N135D, Q142R

Substitutions are numbered along the chain they refer to.

T5 sequence (P08637 17-208 F176V): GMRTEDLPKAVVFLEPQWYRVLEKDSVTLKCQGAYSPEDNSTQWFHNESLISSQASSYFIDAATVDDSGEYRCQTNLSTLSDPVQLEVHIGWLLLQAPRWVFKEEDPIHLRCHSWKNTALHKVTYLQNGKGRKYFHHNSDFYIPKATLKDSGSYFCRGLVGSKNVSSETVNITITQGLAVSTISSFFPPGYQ

B1: M103205H795-MY464/M103202L889-SK1 (antibody, human IgG1, kappa)
heavy: QVTLKESGPVLVKPTETLTLTCTVSGIDLSHDDISWVRQAPGKGLEWVGIISYAGSTYYASWAKGRLTISKDTSKNQVVLTMTNMDPVDTATYYCARGVPAYSHGGDLWGQGTLVTVSSASTKGPSVFPLAPSSKSTSGGTAALGCLVKDYFPEPVTVSWNSGALTSGVHTFPAVLQSSGLYSLSSVVTVPSSSLGTQTYICNVNHKPSNTKVDKKVEPKSCDKTHTCPPCPIPELLTGPSVFLFPPKPKDTLMISRTPEVTCVVVDVSDEDPEVKFNWYVDGVEVHNAKTKPREEQYNSTYRVVSVLTVLHQDWLNGKEYKCKVSNKALPKPIEKTISKAKGQPREPQVYTLPPSREEMTKNQVSLTCLVKGFYPSDIAVEWESNGQPENNYKTTPPVLDSDGSFFLYSKLTVDKSRWQQGNVFSCSVMHEALHNHYTQKSLSLSP
light: DIVMTQSPATLSLSPGERATLSCTSSQSVYHANWLSWFQQKPGQPPKLLIYWASTLAYGVPSRFSGSGSGTDFTLTISSLQPEDAATYYCAGGYGGGRYAFGQGTKVEIKRTVAAPSVFIFPPSDEQLKSGTASVVCLLNNFYPREAKVQWKVDNALQSGNSQESVTEQDSKDSTYSLSSTLTLSKADYEKHKVYACEVTHQGLSSPVTKSFNRGEC
notes: copies: 2 + 2
Consider B1, for which the Kd in assay [1] was found to be 500 nM; in [2], 1700 nM; in assay [3] it was 1500 nM; in [4], 3900 nM; in assay [5], 4400 nM; in [6], 170 nM. Moreover, the results for the Kd in assay [7], in assay [8] and in assay [9] were 1600 nM, 260 nM and 1900 nM, respectively.

B2: M103205H795-MY470/M103202L889-SK1 (antibody, human IgG1, kappa)
heavy: B1 heavy with I233Q
light: B1 light
notes: copies: 2 + 2
In the case of B2, the Kd in assay [1] turned out to be 550 nM; in assay [2], 1700 nM; in assay [3] it was 1800 nM; in assay [4], 4900 nM; in assay [5], 5100 nM; in assay [6], 220 nM. Besides, the Kd came to 2700 nM in assay [7], 470 nM in assay [8] and 2200 nM in [9].

B3: M103205H795-MY467/M103202L889-SK1 (antibody, human IgG1, kappa)
heavy: B1 heavy with I233M
light: B1 light
notes: copies: 2 + 2
Turning to B3, the Kd in [1] came to 510 nM; in assay [2], 1700 nM; in [3] it was 1900 nM; in assay [4], 4700 nM; in assay [5] it was 4800 nM; in assay [6], 180 nM. For the same molecule, the Kd in assay [7] stood at 2000 nM; in assay [8], 360 nM; in assay [9] it was 1900 nM.

B4: M103205H795-MY471/M103202L889-SK1 (antibody, human IgG1, kappa)
heavy: B1 heavy with I233R
light: B1 light
notes: copies: 2 + 2
Consider B4, for which the Kd in assay [1] was determined as 700 nM; in assay [2] it was 1800 nM; in assay [3], 2100 nM; in assay [4], 4500 nM; in [5] it was 5300 nM; in assay [6] it was 230 nM. Besides, the Kd amounted to 2800 nM in assay [7], 470 nM in assay [8] and 2600 nM in assay [9].

B5: M103205H795-MY466/M103202L889-SK1 (antibody, human IgG1, kappa)
heavy: B1 heavy with I233L
light: B1 light
notes: copies: 2 + 2
With B5, the Kd was 510 nM in [1]; 1800 nM in assay [2]; 1800 nM in assay [3]; 4400 nM in [4]; 4300 nM in assay [5]; 170 nM in [6]. Also, the values for the Kd in [7], in [8] and in assay [9] were 1400 nM, 280 nM and 1900 nM, respectively.

B6: M103205H795-MY465/M103202L889-SK1 (antibody, human IgG1, kappa)
heavy: B1 heavy with I233K
light: B1 light
notes: copies: 2 + 2
Consider B6, for which the Kd in [1] worked out at 630 nM; in [2], 1900 nM; in assay [3], 2800 nM; in assay [4], 5200 nM; in [5], 5500 nM; in assay [6] it was 250 nM. Moreover, the Kd worked out at 2800 nM in assay [7], 600 nM in assay [8] and 2000 nM in assay [9].

B7: M103205H795-MY468/M103202L889-SK1 (antibody, human IgG1, kappa)
heavy: B1 heavy with I233N
light: B1 light
notes: copies: 2 + 2
Turning to B7, the Kd in [1] is 650 nM; in assay [2] it was 2300 nM; in assay [3], 2500 nM; in [4], 5200 nM; in assay [5], 6800 nM; in [6], 280 nM. Besides, the Kd in assay [7] was 2600 nM; in assay [8] it was 470 nM; in assay [9] it was 2800 nM.

B8: M103205H795-MY473/M103202L889-SK1 (antibody, human IgG1, kappa)
heavy: B1 heavy with I233T
light: B1 light
notes: copies: 2 + 2
With B8, the dissociation constant Kd in assay [1] was found to be 580 nM; in assay [2] it was 1700 nM; in assay [3], 2600 nM; in assay [4], 5500 nM; in [5] it was 5200 nM; in assay [6], 220 nM. Moreover, the Kd in [7] was found to be 2200 nM; in assay [8], 490 nM; in assay [9], 1600 nM.

B9: M103205H795-MY472/M103202L889-SK1 (antibody, human IgG1, kappa)
heavy: B1 heavy with I233S
light: B1 light
notes: copies: 2 + 2
For B9, the Kd is 660 nM in [1]; 2500 nM in assay [2]; 2100 nM in assay [3]; 5100 nM in assay [4]; 6300 nM in assay [5]; 250 nM in assay [6]. Further, the Kd in assay [7] is 2500 nM; in assay [8] it was 490 nM; in assay [9], 2400 nM.

B10: M103205H795-MY469/M103202L889-SK1 (antibody, human IgG1, kappa)
heavy: B1 heavy with I233P
light: B1 light
notes: copies: 2 + 2
Regarding B10, the Kd was determined as 610 nM in assay [1]; 2200 nM in [2]; 2100 nM in assay [3]; 4900 nM in assay [4]; 5900 nM in assay [5]; 200 nM in assay [6]. Further, the Kd in assay [7] is 2400 nM; in assay [8] it was 430 nM; in [9], 2200 nM.
